Results published in publication PMC8394291, “Identification of TSPAN4 as Novel Histamine H4 Receptor Interactor” (Biomolecules, 2021).
Blank lines part the entries; values can stand above or below the binder they belong to.

Target: T1, H4R-Nluc (human, UniProt Q9H3N8-1 1-390)
T1 construct: histamine H4 receptor (H4R), human; Nluc fused in frame to the intracellular C-terminal tail; also called H4R-Nluc/pcDEF3; human H4R-Nluc fusion; source: HEK293T, transiently transfected, in living cells; not shown: NanoLuc (Nluc), C-terminal, kept
Assay: FRET or BRET; saturation BRET in living HEK293T cells; constant H4R-Nluc donor (12.5 ng) with 0-500 ng mVenus-tagged TSPAN4 acceptor plasmid; HBSS, 37 °C; vehicle or 10 µM histamine; one site-specific binding fit
Details: partners not purified

BRET50 (vehicle): 0.45 mVenus/Nluc ratio | BRET50 (with 10 µM histamine): 0.68 mVenus/Nluc ratio
B1: TSPAN4-mVenus (natural protein, human, UniProt O14817 1-238, looked up)
chain: MARACLQAVKYLMFAFNLLFWLGGCGVLGVGIWLAATQGSFATLSSSFPSLSAANLLIITGAFVMAIGFVGCLGAIKENKCLLLTFFLLLLLVFLLEATIAILFFAYTDKIDRYAQQDLKKGLHLYGTQGNVGLTNAWSIIQTDFRCCGVSNYTDWFEVYNATRVPDSCCLEFSESCGLHAPGTWWKAPCYETVKVWLQENLLAVGIFGLCTALVQILGLTFAMTMYCQVVKADTYCA
notes: tetraspanin 4 (TSPAN4), human; stop codon replaced by SpeI-NotI sites coding for a TSAAA linker, mVenus at the intracellular C-terminus; also called TSPAN4-mVenus/pcDEF3; source: HEK293T, transiently transfected, in living cells; not shown: mVenus (with TSAAA linker), C-terminal, kept

BRET50 (vehicle): 0.79 mVenus/Nluc ratio | BRET50 (with 10 µM histamine): 0.92 mVenus/Nluc ratio
B2: mVenus-TSPAN4 (natural protein, human, UniProt O14817 2-238, looked up)
chain: ARACLQAVKYLMFAFNLLFWLGGCGVLGVGIWLAATQGSFATLSSSFPSLSAANLLIITGAFVMAIGFVGCLGAIKENKCLLLTFFLLLLLVFLLEATIAILFFAYTDKIDRYAQQDLKKGLHLYGTQGNVGLTNAWSIIQTDFRCCGVSNYTDWFEVYNATRVPDSCCLEFSESCGLHAPGTWWKAPCYETVKVWLQENLLAVGIFGLCTALVQILGLTFAMTMYCQVVKADTYCA
notes: tetraspanin 4 (TSPAN4), human; start codon replaced by SpeI-NotI sites coding for a TSAAA linker, mVenus at the intracellular N-terminus; also called mVenus-TSPAN4/pcDNA3.1; source: HEK293T, transiently transfected, in living cells (BRET) and in lysate (co-IP); not shown: mVenus (with TSAAA linker), N-terminal, kept
